Test results reported in paper PMC10634230, “The XIST lncRNA is a sex-specific reservoir of TLR7 ligands in SLE”.

Biological target: T1, TLR7 Fc chimera (recombinant human TLR7) (Homo sapiens, UniProt Q9NYK1 27-839)
T1 sequence: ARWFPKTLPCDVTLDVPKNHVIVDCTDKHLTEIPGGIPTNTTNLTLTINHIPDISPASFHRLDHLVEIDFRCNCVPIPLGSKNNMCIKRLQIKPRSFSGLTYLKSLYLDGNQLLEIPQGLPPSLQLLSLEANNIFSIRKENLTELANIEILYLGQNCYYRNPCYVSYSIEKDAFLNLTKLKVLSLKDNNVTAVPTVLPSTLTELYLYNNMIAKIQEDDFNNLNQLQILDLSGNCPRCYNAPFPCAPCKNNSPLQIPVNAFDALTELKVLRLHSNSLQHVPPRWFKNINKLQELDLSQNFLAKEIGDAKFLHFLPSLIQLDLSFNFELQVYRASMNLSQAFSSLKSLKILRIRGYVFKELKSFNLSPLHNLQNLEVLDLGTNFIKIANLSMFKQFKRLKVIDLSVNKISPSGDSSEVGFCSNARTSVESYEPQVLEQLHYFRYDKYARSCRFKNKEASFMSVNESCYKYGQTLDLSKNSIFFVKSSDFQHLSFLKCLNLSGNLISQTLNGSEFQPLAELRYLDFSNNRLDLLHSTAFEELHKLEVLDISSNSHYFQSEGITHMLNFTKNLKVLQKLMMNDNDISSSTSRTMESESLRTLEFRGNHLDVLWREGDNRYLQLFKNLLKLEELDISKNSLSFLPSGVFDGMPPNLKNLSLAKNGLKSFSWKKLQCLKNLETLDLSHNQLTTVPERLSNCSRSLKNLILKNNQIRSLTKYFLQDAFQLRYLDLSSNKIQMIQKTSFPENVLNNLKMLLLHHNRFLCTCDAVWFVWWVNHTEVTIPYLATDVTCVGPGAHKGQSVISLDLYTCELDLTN
Assay: fluorescence anisotropy; 10 uM HEPES (so in the source), 150 mM NaCl, 300 uM EDTA, 1 mM DTT, 1% glycerol; pH and temperature not stated; FA: 20 nM RNA, 10-300 nM TLR7, 10 min; EMSA: 100 ng RNA, 1 ug TLR7 in 20 uL, 30 min, 5% polyacrylamide gel
Details: protein: commercial; tags: Fc chimera; chain copies: 2; label: 5' FAM

B1: XIST1.1 (ssRNA)
RNA: GUUGUCAAUGGUCCUUCAA
Work on B1 yielded a Kd of 138 nM.

B2: RNA9.2s (ssRNA)
RNA: AGCUUAACCUGUCCUUCAA
With B2 the Kd was 292 nM.

B3: polyA (ssRNA)
RNA: AAAAAAAAAAAAAAAAAAA
B3: no binding.

B4: RNA9.2a (ssRNA)
RNA: UUGAAGGACAGGUUAAGCU
In the case of B4, the Kd is reported as 752 nM.
